In FireProtDB (doi:10.1126/science.aai7825):

B1: Integration host factor subunit alpha wild type, P0A6X7 (protein)
chain: MALTKAEMSEYLFDKLGLSKRDAKELVELFFEEIRRALENGEQVKLSGFGNFDLRDKNQRPGRNPKTGEDIPITARRVVTFRPGQKLKSRVENASPKDE
B2: Glucokinase wild type, P0A6V8 (protein)
chain: MTKYALVGDVGGTNARLALCDIASGEISQAKTYSGLDYPSLEAVIRVYLEEHKVEVKDGCIAIACPITGDWVAMTNHTWAFSIAEMKKNLGFSHLEIINDFTAVSMAIPMLKKEHLIQFGGAEPVEGKPIAVYGAGTGLGVAHLVHVDKRWVSLPGEGGHVDFAPNSEEEAIILEILRAEIGHVSAERVLSGPGLVNLYRAIVKADNRLPENLKPKDITERALADSCTDCRRALSLFCVIMGRFGGNLALNLGTFGGVFIAGGIVPRFLEFFKASGFRAAFEDKGRFKEYVHDIPVYLIVHDNPGLLGSGAHLRQTLGHIL
B3: Phenylalanine--tRNA ligase alpha subunit wild type, P08312 (protein)
chain: MSHLAELVASAKAAISQASDVAALDNVRVEYLGKKGHLTLQMTTLRELPPEERPAAGAVINEAKEQVQQALNARKAELESAALNARLAAETIDVSLPGRRIENGGLHPVTRTIDRIESFFGELGFTVATGPEIEDDYHNFDALNIPGHHPARADHDTFWFDTTRLLRTQTSGVQIRTMKAQQPPIRIIAPGRVYRNDYDQTHTPMFHQMEGLIVDTNISFTNLKGTLHDFLRNFFEEDLQIRFRPSYFPFTEPSAEVDVMGKNGKWLEVLGCGMVHPNVLRNVGIDPEVYSGFAFGMGMERLTMLRYGVTDLRSFFENDLRFLKQFK
B4: UDP-glucose 4-epimerase wild type, P09147 (protein)
chain: MRVLVTGGSGYIGSHTCVQLLQNGHDVIILDNLCNSKRSVLPVIERLGGKHPTFVEGDIRNEALMTEILHDHAIDTVIHFAGLKAVGESVQKPLEYYDNNVNGTLRLISAMRAANVKNFIFSSSATVYGDQPKIPYVESFPTGTPQSPYGKSKLMVEQILTDLQKAQPDWSIALLRYFNPVGAHPSGDMGEDPQGIPNNLMPYIAQVAVGRRDSLAIFGNDYPTEDGTGVRDYIHVMDLADGHVVAMEKLANKPGVHIYNLGAGVGNSVLDVVNAFSKACGKPVNYHFAPRREGDLPAYWADASKADRELNWRVTRTLDEMAQDTWHWQSRHPQGYPD
B5: Phosphoribosylglycinamide formyltransferase wild type, P08179 (protein)
chain: MNIVVLISGNGSNLQAIIDACKTNKIKGTVRAVFSNKADAFGLERARQAGIATHTLIASAFDSREAYDRELIHEIDMYAPDVVVLAGFMRILSPAFVSHYAGRLLNIHPSLLPKYPGLHTHRQALENGDEEHGTSVHFVTDELDGGPVILQAKVPVFAGDSEDDITARVQTQEHAIYPLVISWFADGRLKMHENAAWLDGQRLPPQGYAADE
B6: dTDP-4-dehydrorhamnose 3,5-epimerase wild type, P37745 (protein)
chain: MNVIRTEIEDVLILEPRVFGDDRGFFYESFNQSAFEHILGYPVSFVQDNHSRSSKNVLRGLHFQRGEYAQDKLVRCTHGAVFDVAVDIRPNSVSFGKWVGVLLSADNKQQLWIPKGFAHGFLVLSDIAEFQYKTTNYYHPESDCGICWNDERIAIDWPQTSGLILSPKDERLFTLDELIRLKLIA
B7: Mannosyl-3-phosphoglycerate phosphatase wild type, P76329 (protein)
chain: MFSIQQPLLVFSDLDGTLLDSHSYDWQPAAPWLTRLREANVPVILCSSKTSAEMLYLQKTLGLQGLPLIAENGAVIQLAEQWQEIDGFPRIISGISHGEISLVLNTLREKEHFKFTTFDDVDDATIAEWTGLSRSQAALTQLHEASVTLIWRDSDERMAQFTARLNELGLQFMQGARFWHVLDASAGKDQAANWIIATYQQLSGKRPTTLGLGDGPNDAPLLEVMDYAVIVKGLNREGVHLHDEDPARVWRTQREGPEGWREGLDHFFSAR
B8: Transcriptional regulatory protein CusR wild type, P0ACZ8 (protein)
chain: MKLLIVEDEKKTGEYLTKGLTEAGFVVDLADNGLNGYHLAMTGDYDLIILDIMLPDVNGWDIVRMLRSANKGMPILLLTALGTIEHRVKGLELGADDYLVKPFAFAELLARVRTLLRRGAAVIIESQFQVADLMVDLVSRKVTRSGTRITLTSKEFTLLEFFLRHQGEVLPRSLIASQVWDMNFDSDTNAIDVAVKRLRGKIDNDFEPKLIQTVRGVGYMLEVPDGQ
B9: Putative NAD(P)H nitroreductase YdjA wild type, P0ACY1 (protein)
chain: MDALELLINRRSASRLAEPAPTGEQLQNILRAGMRAPDHKSMQPWHFFVIEGEGRERFSAVLEQGAIAAGSDDKAIDKARNAPFRAPLIITVVAKCEENHKVPRWEQEMSAGCAVMAMQMAAVAQGFGGIWRSGALTESPVVREAFGCREQDKIVGFLYLGTPQLKASTSINVPDPTPFVTYF
B10: Ribosomal small subunit pseudouridine synthase A wild type, P0AA43 (protein)
chain: MRLDKFIAQQLGVSRAIAGREIRGNRVTVDGEIVRNAAFKLLPEHDVAYDGNPLAQQHGPRYFMLNKPQGYVCSTDDPDHPTVLYFLDEPVAWKLHAAGRLDIDTTGLVLMTDDGQWSHRITSPRHHCEKTYLVTLESPVADDTAEQFAKGVQLHNEKDLTKPAVLEVITPTQVRLTISEGRYHQVKRMFAAVGNHVVELHRERIGGITLDADLAPGEYRPLTEEEIASVV
B11: Formate-dependent phosphoribosylglycinamide formyltransferase wild type, P33221 (protein)
chain: MTLLGTALRPAATRVMLLGSGELGKEVAIECQRLGVEVIAVDRYADAPAMHVAHRSHVINMLDGDALRRVVELEKPHYIVPEIEAIATDMLIQLEEEGLNVVPCARATKLTMNREGIRRLAAEELQLPTSTYRFADSESLFREAVADIGYPCIVKPVMSSSGKGQTFIRSAEQLAQAWKYAQQGGRAGAGRVIVEGVVKFDFEITLLTVSAVDGVHFCAPVGHRQEDGDYRESWQPQQMSPLALERAQEIARKVVLALGGYGLFGVELFVCGDEVIFSEVSPRPHDTGMVTLISQDLSEFALHVRAFLGLPVGGIRQYGPAASAVILPQLTSQNVTFDNVQNAVGADLQIRLFGKPEIDGSRRLGVALATAESVVDAIERAKHAAGQVKVQG
B12: Phosphoribosylaminoimidazole-succinocarboxamide synthase wild type, P0A7D7 (protein)
chain: MQKQAELYRGKAKTVYSTENPDLLVLEFRNDTSAGDGARIEQFDRKGMVNNKFNYFIMSKLAEAGIPTQMERLLSDTECLVKKLDMVPVECVVRNRAAGSLVKRLGIEEGIELNPPLFDLFLKNDAMHDPMVNESYCETFGWVSKENLARMKELTYKANDVLKKLFDDAGLILVDFKLEFGLYKGEVVLGDEFSPDGSRLWDKETLEKMDKDRFRQSLGGLIEAYEAVARRLGVQLD
B13: UTP--glucose-1-phosphate uridylyltransferase wild type, P0AEP3 (protein)
chain: MAAINTKVKKAVIPVAGLGTRMLPATKAIPKEMLPLVDKPLIQYVVNECIAAGITEIVLVTHSSKNSIENHFDTSFELEAMLEKRVKRQLLDEVQSICPPHVTIMQVRQGLAKGLGHAVLCAHPVVGDEPVAVILPDVILDEYESDLSQDNLAEMIRRFDETGHSQIMVEPVADVTAYGVVDCKGVELAPGESVPMVGVVEKPKADVAPSNLAIVGRYVLSADIWPLLAKTPPGAGDEIQLTDAIDMLIEKETVEAYHMKGKSHDCGNKLGYMQAFVEYGIRHNTLGTEFKAWLEEEMGIKK
B14: Probable ATP-dependent transporter SufC wild type, P77499 (protein)
chain: MLSIKDLHVSVEDKAILRGLSLDVHPGEVHAIMGPNGSGKSTLSATLAGREDYEVTGGTVEFKGKDLLALSPEDRAGEGIFMAFQYPVEIPGVSNQFFLQTALNAVRSYRGQETLDRFDFQDLMEEKIALLKMPEDLLTRSVNVGFSGGEKKRNDILQMAVLEPELCILDESDSGLDIDALKVVADGVNSLRDGKRSFIIVTHYQRILDYIKPDYVHVLYQGRIVKSGDFTLVKQLEEQGYGWLTEQQ
B15: GTPase ObgE/CgtA wild type, P42641 (protein)
chain: MKFVDEASILVVAGDGGNGCVSFRREKYIPKGGPDGGDGGDGGDVWMEADENLNTLIDYRFEKSFRAERGQNGASRDCTGKRGKDVTIKVPVGTRVIDQGTGETMGDMTKHGQRLLVAKGGWHGLGNTRFKSSVNRTPRQKTNGTPGDKRELLLELMLLADVGMLGMPNAGKSTFIRAVSAAKPKVADYPFTTLVPSLGVVRMDNEKSFVVADIPGLIEGAAEGAGLGIRFLKHLERCRVLLHLIDIDPIDGTDPVENARIIISELEKYSQDLATKPRWLVFNKIDLLDKVEAEEKAKAIAEALGWEDKYYLISAASGLGVKDLCWDVMTFIIENPVVQAEEAKQPEKVEFMWDDYHRQQLEEIAEEDDEDWDDDWDEDDEEGVEFIYKR
B16: dTDP-glucose 4,6-dehydratase 1 wild type, P37759 (protein)
chain: MKILVTGGAGFIGSAVVRHIINNTQDSVVNVDKLTYAGNRESLADVSDSERYVFEHADICDAPAMARIFAQHQPDAVMHLAAESHVDRSITGPAAFIETNIVGTYVLLEAARNYWSALDSDKKNSFRFHHISTDEVYGDLPHPDEVNNTEELPLFTETTAYAPSSPYSASKASSDHLVRAWKRTYGLPTIVTNCSNNYGPYHFPEKLIPLVILNALEGKALPIYGKGDQIRDWLYVEDHARALYTVVTEGKAGETYNIGGHNEKKNIDVVLTICDLLDEIVPKEKSYREQITYVADRPGHDRRYAIDAEKIGRALGWKPQETFESGIRKTVEWYLSNTKWVDNVKSGAYQSWIEQNYEGRQ
B17: Protein GrpE wild type, P09372 (protein)
chain: MSSKEQKTPEGQAPEEIIMDQHEEIEAVEPEASAEQVDPRDEKVANLEAQLAEAQTRERDGILRVKAEMENLRRRTELDIEKAHKFALEKFINELLPVIDSLDRALEVADKANPDMSAMVEGIELTLKSMLDVVRKFGVEVIAETNVPLDPNVHQAIAMVESDDVAPGNVLGIMQKGYTLNGRTIRAAMVTVAKAKA

Conditions: Escherichia coli (strain K12); pH 7.5; Thermal; Intensity; HEPES 20mM; transition: 2; whole UniProt chain shown
B1 showed a Tm of 44.6 °C. With B2 the Tm was 44.4 °C. Work on B3 yielded a Tm of 43.3 °C. In the case of B4, the Tm is reported as 45 °C. B5 gave a Tm of 43.5 °C. B6 showed a Tm of 44.2 °C. B7 gave a Tm of 43.9 °C. Protein B8 has a Tm of 43.7 °C. In the case of B9, the Tm is reported as 45.3 °C. Work on B10 yielded a Tm of 45 °C. For B11, the Tm was 43.4 °C. B12 showed a Tm of 43.1 °C. For B13, the Tm was 45.6 °C. With B14 the Tm was 44.9 °C. Protein B15 has a Tm of 44.5 °C. B16 gave a Tm of 44.3 °C. B17 gave a Tm of 44 °C.
